According to patent US20260001928A1 (CORTERIA PHARMACEUTICALS, priority 2022, published 2026):
*1 amine or outer side, *2 acyl side, *3 side chain or, on linkers, in order; H or OH if unused. Where no end group is shown, it is not given here. Side-chain parts run from the residue outwards. [ ]: non-standard residue; d: D form. The star is where a group is joined. γGlu = O=C(O)[C@H](CCC(=O)[*:2])N[*:1]; C14 diacid = O=C(O)CCCCCCCCCCCCC(=O)*; NMeI = CC[C@H](C)[C@H](NC)C(=O)O; Api = NC1(C(=O)O)CCNCC1; Pentanoyl = CCCCC(=O)*; AEEA = NCCOCCOCC(=O)O; Aib = CC(C)(N)C(=O)O

T1: CRF1R receptor (UniProt P34998 24-415, limits assumed)
T1 sequence (looked up): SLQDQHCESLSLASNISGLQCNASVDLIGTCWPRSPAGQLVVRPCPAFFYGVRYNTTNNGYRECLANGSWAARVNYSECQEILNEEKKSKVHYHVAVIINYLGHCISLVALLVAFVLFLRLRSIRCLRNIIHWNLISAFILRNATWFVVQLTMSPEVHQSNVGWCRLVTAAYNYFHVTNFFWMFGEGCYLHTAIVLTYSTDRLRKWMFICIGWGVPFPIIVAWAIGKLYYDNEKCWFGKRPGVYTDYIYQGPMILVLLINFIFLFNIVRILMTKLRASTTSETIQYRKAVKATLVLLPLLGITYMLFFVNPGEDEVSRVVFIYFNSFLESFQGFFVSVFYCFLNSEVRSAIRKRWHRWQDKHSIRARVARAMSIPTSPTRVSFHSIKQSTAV

B1: SEQ ID NO 178 (peptide)
peptide: [NMeI]VLSLD[dV]PIKLK([AEEA-AEEA-γGlu-C14 diacid])KILLEQEKQKKQREQAETN[Aib]QILAQV-NH2
modifications: N-terminus assumed
SMILES: CC[C@H](C)[C@H](NC)C(=O)N[C@H](C(=O)N[C@@H](CC(C)C)C(=O)N[C@@H](CO)C(=O)N[C@@H](CC(C)C)C(=O)N[C@@H](CC(=O)O)C(=O)N[C@@H](C(=O)N1CCC[C@H]1C(=O)N[C@H](C(=O)N[C@@H](CCCCN)C(=O)N[C@@H](CC(C)C)C(=O)N[C@@H](CCCCNC(=O)COCCOCCNC(=O)COCCOCCNC(=O)CC[C@H](NC(=O)CCCCCCCCCCCCC(=O)O)C(=O)O)C(=O)N[C@@H](CCCCN)C(=O)N[C@H](C(=O)N[C@@H](CC(C)C)C(=O)N[C@@H](CC(C)C)C(=O)N[C@@H](CCC(=O)O)C(=O)N[C@@H](CCC(N)=O)C(=O)N[C@@H](CCC(=O)O)C(=O)N[C@@H](CCCCN)C(=O)N[C@@H](CCC(N)=O)C(=O)N[C@@H](CCCCN)C(=O)N[C@@H](CCCCN)C(=O)N[C@@H](CCC(N)=O)C(=O)N[C@@H](CCCNC(=N)N)C(=O)N[C@@H](CCC(=O)O)C(=O)N[C@@H](CCC(N)=O)C(=O)N[C@@H](C)C(=O)N[C@@H](CCC(=O)O)C(=O)N[C@H](C(=O)N[C@@H](CC(N)=O)C(=O)NC(C)(C)C(=O)N[C@@H](CCC(N)=O)C(=O)N[C@H](C(=O)N[C@@H](CC(C)C)C(=O)N[C@@H](C)C(=O)N[C@@H](CCC(N)=O)C(=O)N[C@H](C(N)=O)C(C)C)[C@@H](C)CC)[C@@H](C)O)[C@@H](C)CC)[C@@H](C)CC)C(C)C)C(C)C
B2: SEQ ID NO 180 (peptide)
peptide: Pentanoyl-VLSLD[dV]PIKLK([AEEA-AEEA-γGlu-C14 diacid])KILLEQEKQKKQREQAETN[Aib]QILAQV-NH2
SMILES: CCCCC(=O)N[C@H](C(=O)N[C@@H](CC(C)C)C(=O)N[C@@H](CO)C(=O)N[C@@H](CC(C)C)C(=O)N[C@@H](CC(=O)O)C(=O)N[C@@H](C(=O)N1CCC[C@H]1C(=O)N[C@H](C(=O)N[C@@H](CCCCN)C(=O)N[C@@H](CC(C)C)C(=O)N[C@@H](CCCCNC(=O)COCCOCCNC(=O)COCCOCCNC(=O)CC[C@H](NC(=O)CCCCCCCCCCCCC(=O)O)C(=O)O)C(=O)N[C@@H](CCCCN)C(=O)N[C@H](C(=O)N[C@@H](CC(C)C)C(=O)N[C@@H](CC(C)C)C(=O)N[C@@H](CCC(=O)O)C(=O)N[C@@H](CCC(N)=O)C(=O)N[C@@H](CCC(=O)O)C(=O)N[C@@H](CCCCN)C(=O)N[C@@H](CCC(N)=O)C(=O)N[C@@H](CCCCN)C(=O)N[C@@H](CCCCN)C(=O)N[C@@H](CCC(N)=O)C(=O)N[C@@H](CCCNC(=N)N)C(=O)N[C@@H](CCC(=O)O)C(=O)N[C@@H](CCC(N)=O)C(=O)N[C@@H](C)C(=O)N[C@@H](CCC(=O)O)C(=O)N[C@H](C(=O)N[C@@H](CC(N)=O)C(=O)NC(C)(C)C(=O)N[C@@H](CCC(N)=O)C(=O)N[C@H](C(=O)N[C@@H](CC(C)C)C(=O)N[C@@H](C)C(=O)N[C@@H](CCC(N)=O)C(=O)N[C@H](C(N)=O)C(C)C)[C@@H](C)CC)[C@@H](C)O)[C@@H](C)CC)[C@@H](C)CC)C(C)C)C(C)C
B3: SEQ ID NO 177 (peptide)
peptide: [NMeI]VLSLD[dV]PIKLK([γGlu-C14 diacid])KILLEQEKQK[Aib]QREQAETN[Aib]QILAQV-NH2
modifications: N-terminus assumed
SMILES: CC[C@H](C)[C@H](NC)C(=O)N[C@H](C(=O)N[C@@H](CC(C)C)C(=O)N[C@@H](CO)C(=O)N[C@@H](CC(C)C)C(=O)N[C@@H](CC(=O)O)C(=O)N[C@@H](C(=O)N1CCC[C@H]1C(=O)N[C@H](C(=O)N[C@@H](CCCCN)C(=O)N[C@@H](CC(C)C)C(=O)N[C@@H](CCCCNC(=O)CC[C@H](NC(=O)CCCCCCCCCCCCC(=O)O)C(=O)O)C(=O)N[C@@H](CCCCN)C(=O)N[C@H](C(=O)N[C@@H](CC(C)C)C(=O)N[C@@H](CC(C)C)C(=O)N[C@@H](CCC(=O)O)C(=O)N[C@@H](CCC(N)=O)C(=O)N[C@@H](CCC(=O)O)C(=O)N[C@@H](CCCCN)C(=O)N[C@@H](CCC(N)=O)C(=O)N[C@@H](CCCCN)C(=O)NC(C)(C)C(=O)N[C@@H](CCC(N)=O)C(=O)N[C@@H](CCCNC(=N)N)C(=O)N[C@@H](CCC(=O)O)C(=O)N[C@@H](CCC(N)=O)C(=O)N[C@@H](C)C(=O)N[C@@H](CCC(=O)O)C(=O)N[C@H](C(=O)N[C@@H](CC(N)=O)C(=O)NC(C)(C)C(=O)N[C@@H](CCC(N)=O)C(=O)N[C@H](C(=O)N[C@@H](CC(C)C)C(=O)N[C@@H](C)C(=O)N[C@@H](CCC(N)=O)C(=O)N[C@H](C(N)=O)C(C)C)[C@@H](C)CC)[C@@H](C)O)[C@@H](C)CC)[C@@H](C)CC)C(C)C)C(C)C
B4: SEQ ID NO 176 (peptide)
peptide: [NMeI]VLSLD[dV]PIKLK([γGlu-C14 diacid])KILLEQEKQKAQREQAETN[Aib]QILAQV-NH2
modifications: N-terminus assumed
SMILES: CC[C@H](C)[C@H](NC)C(=O)N[C@H](C(=O)N[C@@H](CC(C)C)C(=O)N[C@@H](CO)C(=O)N[C@@H](CC(C)C)C(=O)N[C@@H](CC(=O)O)C(=O)N[C@@H](C(=O)N1CCC[C@H]1C(=O)N[C@H](C(=O)N[C@@H](CCCCN)C(=O)N[C@@H](CC(C)C)C(=O)N[C@@H](CCCCNC(=O)CC[C@H](NC(=O)CCCCCCCCCCCCC(=O)O)C(=O)O)C(=O)N[C@@H](CCCCN)C(=O)N[C@H](C(=O)N[C@@H](CC(C)C)C(=O)N[C@@H](CC(C)C)C(=O)N[C@@H](CCC(=O)O)C(=O)N[C@@H](CCC(N)=O)C(=O)N[C@@H](CCC(=O)O)C(=O)N[C@@H](CCCCN)C(=O)N[C@@H](CCC(N)=O)C(=O)N[C@@H](CCCCN)C(=O)N[C@@H](C)C(=O)N[C@@H](CCC(N)=O)C(=O)N[C@@H](CCCNC(=N)N)C(=O)N[C@@H](CCC(=O)O)C(=O)N[C@@H](CCC(N)=O)C(=O)N[C@@H](C)C(=O)N[C@@H](CCC(=O)O)C(=O)N[C@H](C(=O)N[C@@H](CC(N)=O)C(=O)NC(C)(C)C(=O)N[C@@H](CCC(N)=O)C(=O)N[C@H](C(=O)N[C@@H](CC(C)C)C(=O)N[C@@H](C)C(=O)N[C@@H](CCC(N)=O)C(=O)N[C@H](C(N)=O)C(C)C)[C@@H](C)CC)[C@@H](C)O)[C@@H](C)CC)[C@@H](C)CC)C(C)C)C(C)C
B5: SEQ ID NO 175 (peptide)
peptide: Ac-IVLSLD[dV]PIKLK([AEEA-AEEA-γGlu-γGlu-C14 diacid])KILLEQEKQKKQREQAETN[Api]QILAQV-NH2
SMILES: CC[C@H](C)[C@H](NC(C)=O)C(=O)N[C@H](C(=O)N[C@@H](CC(C)C)C(=O)N[C@@H](CO)C(=O)N[C@@H](CC(C)C)C(=O)N[C@@H](CC(=O)O)C(=O)N[C@@H](C(=O)N1CCC[C@H]1C(=O)N[C@H](C(=O)N[C@@H](CCCCN)C(=O)N[C@@H](CC(C)C)C(=O)N[C@@H](CCCCNC(=O)COCCOCCNC(=O)COCCOCCNC(=O)CC[C@H](NC(=O)CC[C@H](NC(=O)CCCCCCCCCCCCC(=O)O)C(=O)O)C(=O)O)C(=O)N[C@@H](CCCCN)C(=O)N[C@H](C(=O)N[C@@H](CC(C)C)C(=O)N[C@@H](CC(C)C)C(=O)N[C@@H](CCC(=O)O)C(=O)N[C@@H](CCC(N)=O)C(=O)N[C@@H](CCC(=O)O)C(=O)N[C@@H](CCCCN)C(=O)N[C@@H](CCC(N)=O)C(=O)N[C@@H](CCCCN)C(=O)N[C@@H](CCCCN)C(=O)N[C@@H](CCC(N)=O)C(=O)N[C@@H](CCCNC(=N)N)C(=O)N[C@@H](CCC(=O)O)C(=O)N[C@@H](CCC(N)=O)C(=O)N[C@@H](C)C(=O)N[C@@H](CCC(=O)O)C(=O)N[C@H](C(=O)N[C@@H](CC(N)=O)C(=O)NC1(C(=O)N[C@@H](CCC(N)=O)C(=O)N[C@H](C(=O)N[C@@H](CC(C)C)C(=O)N[C@@H](C)C(=O)N[C@@H](CCC(N)=O)C(=O)N[C@H](C(N)=O)C(C)C)[C@@H](C)CC)CCNCC1)[C@@H](C)O)[C@@H](C)CC)[C@@H](C)CC)C(C)C)C(C)C
B6: SEQ ID NO 179 (peptide)
peptide: [NMeI]VLSLD[dV]PIKLK([AEEA-AEEA-γGlu-γGlu-C14 diacid])KILLEQEKQKKQREQAETN[Aib]QILAQV-NH2
modifications: N-terminus assumed
SMILES: CC[C@H](C)[C@H](NC)C(=O)N[C@H](C(=O)N[C@@H](CC(C)C)C(=O)N[C@@H](CO)C(=O)N[C@@H](CC(C)C)C(=O)N[C@@H](CC(=O)O)C(=O)N[C@@H](C(=O)N1CCC[C@H]1C(=O)N[C@H](C(=O)N[C@@H](CCCCN)C(=O)N[C@@H](CC(C)C)C(=O)N[C@@H](CCCCNC(=O)COCCOCCNC(=O)COCCOCCNC(=O)CC[C@H](NC(=O)CC[C@H](NC(=O)CCCCCCCCCCCCC(=O)O)C(=O)O)C(=O)O)C(=O)N[C@@H](CCCCN)C(=O)N[C@H](C(=O)N[C@@H](CC(C)C)C(=O)N[C@@H](CC(C)C)C(=O)N[C@@H](CCC(=O)O)C(=O)N[C@@H](CCC(N)=O)C(=O)N[C@@H](CCC(=O)O)C(=O)N[C@@H](CCCCN)C(=O)N[C@@H](CCC(N)=O)C(=O)N[C@@H](CCCCN)C(=O)N[C@@H](CCCCN)C(=O)N[C@@H](CCC(N)=O)C(=O)N[C@@H](CCCNC(=N)N)C(=O)N[C@@H](CCC(=O)O)C(=O)N[C@@H](CCC(N)=O)C(=O)N[C@@H](C)C(=O)N[C@@H](CCC(=O)O)C(=O)N[C@H](C(=O)N[C@@H](CC(N)=O)C(=O)NC(C)(C)C(=O)N[C@@H](CCC(N)=O)C(=O)N[C@H](C(=O)N[C@@H](CC(C)C)C(=O)N[C@@H](C)C(=O)N[C@@H](CCC(N)=O)C(=O)N[C@H](C(N)=O)C(C)C)[C@@H](C)CC)[C@@H](C)O)[C@@H](C)CC)[C@@H](C)CC)C(C)C)C(C)C

target: human corticotropin-releasing factor 2a (CRF2a receptor) (human), Q13324; assay: cell-based or functional assay
Sequence (Q13324 20-411): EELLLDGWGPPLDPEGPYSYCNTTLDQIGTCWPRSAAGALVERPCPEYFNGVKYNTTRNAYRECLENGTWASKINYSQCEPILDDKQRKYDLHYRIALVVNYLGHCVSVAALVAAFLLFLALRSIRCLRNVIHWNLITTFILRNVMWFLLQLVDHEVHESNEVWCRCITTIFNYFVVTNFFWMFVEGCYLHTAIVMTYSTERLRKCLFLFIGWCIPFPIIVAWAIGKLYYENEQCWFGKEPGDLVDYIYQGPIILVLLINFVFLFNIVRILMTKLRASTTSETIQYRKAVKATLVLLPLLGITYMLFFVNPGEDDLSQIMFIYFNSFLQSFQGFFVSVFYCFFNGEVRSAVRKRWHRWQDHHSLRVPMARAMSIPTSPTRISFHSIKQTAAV

EC50 [nM] (cAMP)	Binder
6.5 nM	B1
10.7 nM	B2
0.86 nM	B3
0.99 nM	B4
18.9 nM	B5
15.6 nM	B6

target: T1, CRF1R receptor; assay: cell-based or functional assay

Emax (% I)	Binder
1%	B1
2%	B2
10%	B3
8%	B4
5%	B5
-4%	B6
